13 molecules from PMC5207153, “Differential Receptor Binding and Regulatory Mechanisms for the Lymphangiogenic Growth Factors Vascular Endothelial Growth Factor (VEGF)-C and -D*^([image sbox.jpg])” (The Journal of Biological Chemistry, 2016) can be followed below.

For test [1], the target named is T1, Recombinant human VEGFR-3-Fc chimera (human, UniProt P35916 25-775).
T1 construct: human VEGFR-3 part of the bought Fc chimera; source: bought: R&D Systems
T1 sequence (looked up): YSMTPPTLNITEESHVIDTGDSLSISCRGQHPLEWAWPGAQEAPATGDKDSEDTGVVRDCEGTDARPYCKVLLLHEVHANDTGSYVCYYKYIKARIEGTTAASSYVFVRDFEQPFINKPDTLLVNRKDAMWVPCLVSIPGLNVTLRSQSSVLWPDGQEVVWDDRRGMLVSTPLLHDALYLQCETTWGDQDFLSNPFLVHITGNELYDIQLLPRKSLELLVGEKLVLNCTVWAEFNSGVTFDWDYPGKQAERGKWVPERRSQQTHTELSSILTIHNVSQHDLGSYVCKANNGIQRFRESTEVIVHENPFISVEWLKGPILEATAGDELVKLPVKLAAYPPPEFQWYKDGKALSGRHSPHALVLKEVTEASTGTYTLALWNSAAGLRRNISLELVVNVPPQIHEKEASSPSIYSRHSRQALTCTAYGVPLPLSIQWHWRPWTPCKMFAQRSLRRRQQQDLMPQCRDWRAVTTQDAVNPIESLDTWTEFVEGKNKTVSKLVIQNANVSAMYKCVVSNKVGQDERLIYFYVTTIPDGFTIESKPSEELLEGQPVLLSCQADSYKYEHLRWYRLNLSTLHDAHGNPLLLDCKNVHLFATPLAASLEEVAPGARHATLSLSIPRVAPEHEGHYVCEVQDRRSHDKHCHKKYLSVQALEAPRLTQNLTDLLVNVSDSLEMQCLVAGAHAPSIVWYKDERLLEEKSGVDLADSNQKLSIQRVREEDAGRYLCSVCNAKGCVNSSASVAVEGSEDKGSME

The target of test [2] is T2, Recombinant human VEGFR-2-Fc chimera (human, UniProt P35968 20-764).
T2 construct: human VEGFR-2 part of the bought Fc chimera; source: bought: R&D Systems
Briefly: ELISA; plates coated with human VEGFR-2- or VEGFR-3-Fc chimera at 0.5 μg/ml in 100 mM carbonate buffer pH 9.5; blocked with 1% BSA in PBS, 0.1% Tween 20; 20 ng purified FLAG-tagged ligand in 100 μl PBS, 1 h, room temperature; bound ligand detected with M2-HRP; result as percent of VEGF-DΔNΔC. The settings on record: both partners purified. For orientation: In an ELISA, binding on a coated surface is turned into a signal by an enzyme label.

The target in test [3] is T1, Recombinant human VEGFR-3-Fc chimera. The description is as above. The settings on record: both partners purified.

T2 sequence (P35968 20-764, change not shown): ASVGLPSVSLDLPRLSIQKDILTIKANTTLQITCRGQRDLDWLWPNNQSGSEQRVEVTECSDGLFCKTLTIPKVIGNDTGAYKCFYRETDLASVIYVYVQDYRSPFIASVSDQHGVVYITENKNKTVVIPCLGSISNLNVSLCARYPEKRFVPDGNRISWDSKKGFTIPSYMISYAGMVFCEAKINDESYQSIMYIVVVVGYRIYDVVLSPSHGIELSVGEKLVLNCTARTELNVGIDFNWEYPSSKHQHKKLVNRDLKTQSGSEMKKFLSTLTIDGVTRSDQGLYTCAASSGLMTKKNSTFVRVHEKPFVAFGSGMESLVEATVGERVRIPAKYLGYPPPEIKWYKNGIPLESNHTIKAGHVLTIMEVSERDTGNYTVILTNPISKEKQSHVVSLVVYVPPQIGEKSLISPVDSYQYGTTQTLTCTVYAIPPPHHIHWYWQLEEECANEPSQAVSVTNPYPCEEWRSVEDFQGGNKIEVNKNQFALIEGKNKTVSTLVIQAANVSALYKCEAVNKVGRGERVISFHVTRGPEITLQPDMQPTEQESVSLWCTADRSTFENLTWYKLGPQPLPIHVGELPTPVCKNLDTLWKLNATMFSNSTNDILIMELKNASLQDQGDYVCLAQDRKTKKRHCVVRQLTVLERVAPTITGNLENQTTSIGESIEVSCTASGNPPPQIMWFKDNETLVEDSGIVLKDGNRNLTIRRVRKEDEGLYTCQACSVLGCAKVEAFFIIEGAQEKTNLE

Take “VEGF-CΔNΔC (from UniProt P49767 102-229) (ligand)”: the titration of ligand in the bioassay of VEGFR-3 binding and cross-linking; potency relative to VEGF-DΔNΔC (Fig. 6C) in test [1] is 10 fold.

B1: VEGF-DΔNΔC (ligand, human, UniProt O43915 93-201, looked up)
chain: FYDIETLKVIDEEWQRTQCSPRETCVEVASELGKSTNTFFKPPCVNVFRCGGCCNEESLICMNTSTSYISKQLFEISVPLTSVPELVPVKVANHTGCKCLPTAPRHPYS
notes: human VEGF-D, residues 93-201 (recombinant form of mature VEGF-D); also called mature human VEGF-D; source: 293-F cells, transiently transfected; purified from conditioned medium on M2 (anti-FLAG) gel; not shown: FLAG, N-terminal, kept
As for B1, the binding result in test [2] and in test [3] was “binds” each time.

B2: VEGF-DΔNΔC E97A (ligand, human, UniProt O43915 93-201, looked up)
chain: FYDIATLKVIDEEWQRTQCSPRETCVEVASELGKSTNTFFKPPCVNVFRCGGCCNEESLICMNTSTSYISKQLFEISVPLTSVPELVPVKVANHTGCKCLPTAPRHPYS
notes: human VEGF-D, residues 93-201, Glu97 to alanine; source: 293-F cells, transiently transfected; purified from conditioned medium on M2 (anti-FLAG) gel; not shown: FLAG, N-terminal, kept
With B2, in test [2], the binding result was “binds”.

B3: VEGF-DΔNΔC W106A (ligand, human, UniProt O43915 93-201, looked up)
chain: FYDIETLKVIDEEAQRTQCSPRETCVEVASELGKSTNTFFKPPCVNVFRCGGCCNEESLICMNTSTSYISKQLFEISVPLTSVPELVPVKVANHTGCKCLPTAPRHPYS
notes: human VEGF-D, residues 93-201, W106A; source: 293-F cells, transiently transfected; purified from conditioned medium on M2 (anti-FLAG) gel; not shown: FLAG, N-terminal, kept
Consider B3, for which the binding result in test [2] and in test [3] was “binds” throughout.

B4: VEGF-DΔNΔC E105A (ligand, human, UniProt O43915 93-201, looked up)
chain: FYDIETLKVIDEAWQRTQCSPRETCVEVASELGKSTNTFFKPPCVNVFRCGGCCNEESLICMNTSTSYISKQLFEISVPLTSVPELVPVKVANHTGCKCLPTAPRHPYS
notes: human VEGF-D, residues 93-201, E105A; source: 293-F cells, transiently transfected; purified from conditioned medium on M2 (anti-FLAG) gel; not shown: FLAG, N-terminal, kept
With B4, the binding result in test [2] and in test [3] was “binds” throughout.

B5: VEGF-DΔNΔC I96A (ligand, human, UniProt O43915 93-201, looked up)
chain: FYDAETLKVIDEEWQRTQCSPRETCVEVASELGKSTNTFFKPPCVNVFRCGGCCNEESLICMNTSTSYISKQLFEISVPLTSVPELVPVKVANHTGCKCLPTAPRHPYS
notes: human VEGF-D, residues 93-201, residue 96 (Ile) to alanine; source: 293-F cells, transiently transfected; purified from conditioned medium on M2 (anti-FLAG) gel; not shown: FLAG, N-terminal, kept
For B5, in test [2], the binding result is recorded as “binds”.

B6: VEGF-DΔNΔC T98A (ligand, human, UniProt O43915 93-201, looked up)
chain: FYDIEALKVIDEEWQRTQCSPRETCVEVASELGKSTNTFFKPPCVNVFRCGGCCNEESLICMNTSTSYISKQLFEISVPLTSVPELVPVKVANHTGCKCLPTAPRHPYS
notes: human VEGF-D, residues 93-201, Thr98 to alanine; source: 293-F cells, transiently transfected; purified from conditioned medium on M2 (anti-FLAG) gel; not shown: FLAG, N-terminal, kept
Take B6: in test [2], the binding result is given as “binds”.

B7: VEGF-DΔNΔC D103A (ligand, human, UniProt O43915 93-201, looked up)
chain: FYDIETLKVIAEEWQRTQCSPRETCVEVASELGKSTNTFFKPPCVNVFRCGGCCNEESLICMNTSTSYISKQLFEISVPLTSVPELVPVKVANHTGCKCLPTAPRHPYS
notes: human VEGF-D, residues 93-201, D103A; source: 293-F cells, transiently transfected; purified from conditioned medium on M2 (anti-FLAG) gel; not shown: FLAG, N-terminal, kept
For the molecule B7, the binding result in test [2] and in test [3] was “binds” each time.

B8: VEGF-DΔNΔC F93A (ligand, human, UniProt O43915 93-201, looked up)
chain: AYDIETLKVIDEEWQRTQCSPRETCVEVASELGKSTNTFFKPPCVNVFRCGGCCNEESLICMNTSTSYISKQLFEISVPLTSVPELVPVKVANHTGCKCLPTAPRHPYS
notes: human VEGF-D, residues 93-201, Phe93 to alanine; source: 293-F cells, transiently transfected; purified from conditioned medium on M2 (anti-FLAG) gel; not shown: FLAG, N-terminal, kept
With B8, the binding result in test [2] is listed as “binds”.

B9: VEGF-DΔNΔC Y94A (ligand, human, UniProt O43915 93-201, looked up)
chain: FADIETLKVIDEEWQRTQCSPRETCVEVASELGKSTNTFFKPPCVNVFRCGGCCNEESLICMNTSTSYISKQLFEISVPLTSVPELVPVKVANHTGCKCLPTAPRHPYS
notes: human VEGF-D, residues 93-201, Y94A; source: 293-F cells, transiently transfected; purified from conditioned medium on M2 (anti-FLAG) gel; not shown: FLAG, N-terminal, kept
Consider B9, for which the binding result in test [2] is listed as “binds”.

B10: VEGF-DΔNΔC L99A (ligand, human, UniProt O43915 93-201, looked up)
chain: FYDIETAKVIDEEWQRTQCSPRETCVEVASELGKSTNTFFKPPCVNVFRCGGCCNEESLICMNTSTSYISKQLFEISVPLTSVPELVPVKVANHTGCKCLPTAPRHPYS
notes: human VEGF-D, residues 93-201, L99A; source: 293-F cells, transiently transfected; purified from conditioned medium on M2 (anti-FLAG) gel; not shown: FLAG, N-terminal, kept
For B10, in test [2], the binding result was “binds”.

B11: VEGF-DΔNΔC D95A (ligand, human, UniProt O43915 93-201, looked up)
chain: FYAIETLKVIDEEWQRTQCSPRETCVEVASELGKSTNTFFKPPCVNVFRCGGCCNEESLICMNTSTSYISKQLFEISVPLTSVPELVPVKVANHTGCKCLPTAPRHPYS
notes: human VEGF-D, residues 93-201, Asp95 to alanine; source: 293-F cells, transiently transfected; purified from conditioned medium on M2 (anti-FLAG) gel; not shown: FLAG, N-terminal, kept
For B11, the binding result in test [2] is “binds”.

B12: VEGF-DΔNΔC I102A (ligand, human, UniProt O43915 93-201, looked up)
chain: FYDIETLKVADEEWQRTQCSPRETCVEVASELGKSTNTFFKPPCVNVFRCGGCCNEESLICMNTSTSYISKQLFEISVPLTSVPELVPVKVANHTGCKCLPTAPRHPYS
notes: human VEGF-D, residues 93-201, I102A; source: 293-F cells, transiently transfected; purified from conditioned medium on M2 (anti-FLAG) gel; not shown: FLAG, N-terminal, kept
For B12, the binding result in test [2] and in test [3] was “binds” each time.
